Experimental data from PMC6888877, “Deconstructing and repurposing the light-regulated interplay between Arabidopsis phytochromes and interacting factors” (Communications Biology, 2019).

Assays:
Assay in all cases: SEC; 50 µM AtPhyB PCM + 10 µM AtPIF-EYFP (5:1), illuminated with red light (650 nm, 2 min; results say 640 nm), Pfr state; Superdex 200 Increase 10/300 GL; 67 mM sodium phosphate pH 8.0, 200 mM NaCl
Settings in all cases: both partners purified
[1] = target: T1, P6 (AtPIF6 1-100 without the N-terminal region preceding APB.A)-EYFP (Arabidopsis thaliana)
T1 chain: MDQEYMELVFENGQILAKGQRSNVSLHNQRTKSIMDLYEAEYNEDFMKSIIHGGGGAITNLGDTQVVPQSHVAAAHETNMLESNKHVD

[2] = target: T2, P3.AAfus-EYFP (Arabidopsis thaliana)
T2 chain: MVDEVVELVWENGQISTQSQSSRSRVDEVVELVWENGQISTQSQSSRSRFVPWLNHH

[3] = target: T3, P3.A-EYFP (Arabidopsis thaliana)
T3 chain: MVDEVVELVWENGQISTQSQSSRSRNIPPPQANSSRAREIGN

[4] = target: T4, P3.fus-EYFP (Arabidopsis thaliana)
T4 chain: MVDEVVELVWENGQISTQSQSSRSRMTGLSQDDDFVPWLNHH

[5] = target: T5, P6.As-EYFP (Arabidopsis thaliana)
T5 chain: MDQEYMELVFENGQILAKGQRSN

[6] = target: T6, AtPIF3 (1-100)-EYFP, P3.100 (Arabidopsis thaliana, UniProt O80536 1-100)
T6 construct: A. thaliana PIF3, residues 1-100; His6-SUMO only on the pET-19b construct that was purified; the pET-28c construct used in lysate has the same AtPIF part, linker and EYFP; also called P3.100-EYFP; source: E. coli BL21(DE3): in crude lysate (pET-28c), and purified (pET-19b; IMAC, SENP2 cleavage, second IMAC, optional anion exchange); not shown: His6-SUMO, N-terminal, cleaved
T6 sequence (looked up): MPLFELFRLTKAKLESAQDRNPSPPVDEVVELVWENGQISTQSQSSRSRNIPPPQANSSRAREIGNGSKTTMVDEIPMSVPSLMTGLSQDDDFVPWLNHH

[7] = target: T7, P3.As-EYFP (Arabidopsis thaliana)
T7 chain: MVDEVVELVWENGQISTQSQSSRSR

[8] = target: T8, P6.AAfus-EYFP (Arabidopsis thaliana)
T8 chain: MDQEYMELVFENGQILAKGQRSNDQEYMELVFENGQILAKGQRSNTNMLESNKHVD

[9] = target: T9, P6.A-EYFP (Arabidopsis thaliana)
T9 chain: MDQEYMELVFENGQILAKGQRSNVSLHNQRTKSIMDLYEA

[10] = target: T10, P3.AA-EYFP (Arabidopsis thaliana)
T10 chain: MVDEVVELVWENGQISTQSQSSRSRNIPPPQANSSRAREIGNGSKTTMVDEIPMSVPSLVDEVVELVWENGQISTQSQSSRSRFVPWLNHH

[11] = target: T11, AtPIF6 (1-100)-EYFP, P6.100 (Arabidopsis thaliana, UniProt Q8L5W7 1-100)
T11 construct: A. thaliana PIF6, residues 1-100; His6-SUMO only on the pET-19b construct that was purified; the pET-28c construct used in lysate has the same AtPIF part, linker and EYFP; also called P6.100-EYFP; source: E. coli BL21(DE3): in crude lysate (pET-28c), and purified (pET-19b; IMAC, SENP2 cleavage, second IMAC, optional anion exchange); not shown: His6-SUMO, N-terminal, cleaved
T11 sequence (looked up): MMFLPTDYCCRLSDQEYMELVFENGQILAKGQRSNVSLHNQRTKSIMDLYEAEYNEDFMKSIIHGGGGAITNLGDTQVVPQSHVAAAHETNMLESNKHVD

stoichiometry N [1]: 1 | stoichiometry N [2]: 1 | stoichiometry N [3]: 1 | stoichiometry N [4]: 1 | stoichiometry N [5]: 1 | stoichiometry N [6]: 1 | stoichiometry N [7]: 1 | stoichiometry N [8]: 1 | stoichiometry N [9]: 1 | stoichiometry N [10]: 1 | stoichiometry N [11]: 1
B1: Arabidopsis thaliana phytochrome B photosensory core module (AtPhyB PCM) (domain or fragment, UniProt P14713 1-651, looked up)
chain: MVSGVGGSGGGRGGGRGGEEEPSSSHTPNNRRGGEQAQSSGTKSLRPRSNTESMSKAIQQYTVDARLHAVFEQSGESGKSFDYSQSLKTTTYGSSVPEQQITAYLSRIQRGGYIQPFGCMIAVDESSFRIIGYSENAREMLGIMPQSVPTLEKPEILAMGTDVRSLFTSSSSILLERAFVAREITLLNPVWIHSKNTGKPFYAILHRIDVGVVIDLEPARTEDPALSIAGAVQSQKLAVRAISQLQALPGGDIKLLCDTVVESVRDLTGYDRVMVYKFHEDEHGEVVAESKRDDLEPYIGLHYPATDIPQASRFLFKQNRVRMIVDCNATPVLVVQDDRLTQSMCLVGSTLRAPHGCHSQYMANMGSIASLAMAVIINGNEDDGSNVASGRSSMRLWGLVVCHHTSSRCIPFPLRYACEFLMQAFGLQLNMELQLALQMSEKRVLRTQTLLCDMLLRDSPAGIVTQSPSIMDLVKCDGAAFLYHGKYYPLGVAPSEVQIKDVVEWLLANHADSTGLSTDSLGDAGYPGAAALGDAVCGMAVAYITKRDFLFWFRSHTAKEIKWGGAKHHPEDKDDGQRMHPRSSFQAFLEVVKSRSQPWETAEMDAIHSLQLILRDSFKESEAAMNSKVVDGVVQPCRDMAGEQGIDELGA
modifications: covalently incorporated bilin chromophore (PCB; co-expressed Synechocystis sp. heme oxygenase 1 and pcyA)
notes: A. thaliana phytochrome B, photosensory core module (PAS-GAF-PHY with N-terminal extension), residues 1-651; Pr state (far-red light or dark) and Pfr state (red light; Pfr/Pr about 0.56/0.44) are told apart by the assays; In the cell experiments other constructs were used (PCM-VP16; PCM 1-650 with CAAX); source: E. coli BL21(DE3), plasmid pDG282, purified (Ni-NTA IMAC, anion exchange)
